From the nanobody polyreactivity screen of Harvey et al. (2022) come the findings set out here.

This data set can be described thus: yeast display, Sf9 membrane polyspecificity reagent, FACS + sequencing; frameworks hold sequencing errors. A digest of the protocol:
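Nanobodies from a synthetic yeast display library (Saccharomyces cerevisiae BJ5465), induced 36–48 hours with galactose, were stained 1 hour at 4 °C with 10% biotinylated, detergent-solubilized Sf9 membrane reagent, enriched on streptavidin microbeads, then FACS-sorted. Anti-HA (expression) and streptavidin (reagent binding) fluorescence set low and high (top ~1%) gates. Polyreactivity labels come from the gate of origin. Genes were colony-PCR amplified, MiSeq 2 × 250 sequenced and filtered by CDR length.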
For “QDQLVESGVGLVQAGGSLRLSCAASGRIFGRYSMGWYRQAPGKEMEFVAAISKRGGGTYYADSVKGRFTISRDNAKNTVYLQMNSLKPEDSAVYYCAVDNSPGFDDYDYWGQGTQVTVSS”, the “polyreactivity (PSR sort gate)” value is “high polyreactivity”.
On to “QDQLVESGVGLVQPGGSLRLSCAASGITFRKYAMGWYRQAPGKERELVAAIRWSGTRTYYADSVKGRFTISRDNAKNTDYLQMNRLKPEDTAVYYCATVYGATPGRSGLDYWGQGTQVTVSS”, for which the “polyreactivity (PSR sort gate)” value was “high polyreactivity”.
In the case of “QDQLVESRGGIVQAVRSLRLSCAASGSIFIDNAMGWYRQAPGKESEFVAAISKSATSTYYADSVKGRFTISRDNAYNTVYLEMKSLIPEDTAVYYCAVRRPRPYSNYYYWGQGTQVNVSS”, the “polyreactivity (PSR sort gate)” value is on record as “high polyreactivity”.
Next, “QDQLVESRGGLVQAGGSLRLSCAASGFTFYYYAMGWYRQAPGKERELVAAISSGGSTYYADSVKGRFTISRDNAKNTVYLQMNSLKPEDTAVYYCARLYRVGRYLFDVDSWGQGTQVTVSS”: “high polyreactivity”; “QDQLVESRGGLVQAGGSLRLSCAASGSISVKYAMGWYRQAPGKERELVAAISSDGNTYYADSVKGRFTISRDNAKYNVYLQMNSLKPEDTAVYYCAPAKVSWFGLKYYYWGQGTQVTVSS”: “high polyreactivity”; “QDQLVESRGGLVQAGGSLRLSCAASGSTFGKNTMGWYRQAPGKERELVAAISRGVSTYYADSVKGRFTISRDNAKNTVYLQMNSLKPEDTAVYYCAAQEAYRWYGFDYWGQGTQVTVSS”: “high polyreactivity”.
Next, “QDQLVESRGGLVQAGGSLRLSCAASGSTLSGNAMGWYRQAPGKERELVAAITSSGGRTYYADSVKGRFTISRDNAKNTVYLQMNSLKPEDTAVYYCAKDRYGWGQGTQVTVSS”: “high polyreactivity”; “QDQLVESRGVIVQAGGSLRLSCAASGRIFSVNAMGWYRQAPGKERELVAAITGSGTITYYADSVKGRFTISRDNAKNIVYLQMNSLKQEDTAVYYCAARPVLRYYAGYYYWGQGTQVTVSS”: “high polyreactivity”.
With “QDQLVESRGVLVQAGGSLRLSCAAYGRIISPYAMGWYRQAPGKERELVAAISRRGTRTNYADSVKGRFTLSRDKAKNTVYLQMNSLKPVDTAVYYCNKTPLLRWGQGTQVSVSS” the entry was “high polyreactivity”; with “QDQLVESVGGLVQAGGSLRLSCAASGITFYYSAMGWDRQAPGKERELVAAISFRGGSTYYADSVKGRFTSSRDNAKNTVYLQMNSLKPEDTAVYYCAAETSPSWYTWVTYDYWGQGTQVTVSS”, “high polyreactivity”.
As to “QDQLVESVGGLVQAGGSLRLSCAASGSIFRLYAMGWYRHAPGKERELVAGITSSDGSTYADSVKGRFTISRDNAKNTVYLQMNSLKPEDTAVYYCAARGYVRWYNRYDYWGQGTQVTVSS”, the “polyreactivity (PSR sort gate)” value is given as “low polyreactivity”.
With “QDQLVESVGGLVQAGGSLRLSCAPTGSTFYGYGLAWSRQSPGKARELVAAITGSGDTTYYADSVKGRFTISRDYANNTVYLQMNSLKPEDTAVYYCNARWHAEYDYWGQGTQVTVSS” the entry was “low polyreactivity”; with “QDQLVESVGGLVQAGVSLRLSCAASGGTFDVNAMGWYRQATGKERELVATISGGGSTNYADSVKGRFTISRDNAKNTVYLQMNSLKPEETAVYYCAAESEPIRNRERDYWGQGTQVTVSS”, “low polyreactivity”.
For the sequence “QDQLVESVGSLVQAGGSHRLSCSASGFIIANNPMGWYRQAPGKERELVATITGGGSTDYADTVKRRFTISRDNAKNTVYLQMNSLKPEDTAVYYCAAEYKYWAFASPSLTTNDSWGQGTQVTVSS”, the “polyreactivity (PSR sort gate)” value is “low polyreactivity”.
As for “QDQLVESWGCLVQAGGSLRLSCAASRRIFGGHTMGWYRQAPGKERELVAAITSGRSTTYADSVKGRFTISRDNAKNSVYFLMNSLKPEDTAVDYCAARYVYPNQWTPYIRPYDYWGQGTQVTVSS”, the “polyreactivity (PSR sort gate)” value was “low polyreactivity”.
For the sequence “QDQLVESWVGLVQAGGSLRLSCAASGTISSYAMGWSRQAPGKERELVASIRYRGGSTYYADSVKGRFTISRDNEKNTVYLQINSLKPEDTAVYYCNAVRVPYVRGAKFEYWGQGTQVTVSS”, the “polyreactivity (PSR sort gate)” value is “low polyreactivity”.
Turning to “QDQLVETGGGLVQAGCSLRLSCAASGRIFVPYAMGWYRQSHGKERELVAAISGSDGSTYYADSVKGRFTISRDNAKNTVYLQMNRLKPEDTAVYYCARLLIYAPPSGSHRYYPFDYWGQGTQETVSS”, the “polyreactivity (PSR sort gate)” value is reported as “low polyreactivity”.
For the sequence “QDQPVDSGRCLVQAGGSLRLSCAASGSTFEVYTMGWYRQAPGQERELVAAITKNGGTTYYADSVKGRFTISRDNAKNTVYLLMNSLKPEDTAVYYCAATWPRYGYGYWGQGTQVTVSS”, the “polyreactivity (PSR sort gate)” value is “low polyreactivity”.
With “QDQRVESGGGLVQAGGSLRLSCAASGSIRGYAMGWYRQAPGKERELVASITWSGGSTYYADSVKGRFTISRDNSKNTVYLQMNSLKPEDPAVFYCAARPSPYASFFRPYDYWGQGTQVTVSS” the entry was “low polyreactivity”.
As to “QDQVVESGGGLVQAGGSLRLSCAASGRIFFAYAMGLYRQAAGTERELVAAITSSGNTYYADSVKGRFTISRDNAKNTVFLQINSLKPEDTAVYYCATGYWELRYDYWGQGTQLTVSS”, the “polyreactivity (PSR sort gate)” value is “low polyreactivity”.
With “QDQVVESGGGLVQAGGSLRLSCAASGRTFAIYAMGWYRQAPGKEREFVAAITWRSGSTYYADSVKGRFTISRDNAKNTVYLQMMSVKPEDTAVYFCAAYPYSYLQLMDYWGQGTQVTVSS” the entry was “high polyreactivity”.
With “QEQLQERAAWCRRAGSLRLSCAASGNISDYYFMGWYRQAPGKERELVAAIAPGSNTYYADSVKGRFTISRDNAKNTVYLQMNSLKPEDTAVCFCAANSTQYTWFDYWGQGTQVPVSS” the entry was “low polyreactivity”; with “QEQLQESGGGLVQACGSLRLSCAASGYIFSHQYMGWYRQAPGKERELVASISPRATTNYADSVKGRFTISRDNAKNTVYLQMNSLKPEDTAVYYYAVYQILDRRLSYWGQGTQVTVSC”, “high polyreactivity”.
Take “QEQLQESGGGLVQAGDSPRLSCAESGYITARTGMGSYRQAPGKEREFVAGIASGTRTHYADSVKGRFTISRDNAKNAVYLQMTSLKPEDTAVYYCAATFGFFYYQYDYWGQGTQVTVSS”: the “polyreactivity (PSR sort gate)” value was “low polyreactivity”.
In the case of “QEQLQESGGGLVQAGGSLRLSCAASGNISTHQLYMGSYRQAPGKEREFVAAINFGASTYYADSVKGRNTISRDNAKYTVYLQMNSLKPEDTAVYYCNADWYYYYEVDDYWGQGTQVTVSS”, the “polyreactivity (PSR sort gate)” value was “low polyreactivity”.
With “QEQLQESGGGLVQAGGSLRLSCAASGSIYDDTYMARYRQAPGKERELVATIDSGSTTNYADSVKGRITISRDNAKNTVYLQMNSLKPEDSAVYYCAAADSHIDYFDYWGQGTQVTVSS” the entry was “low polyreactivity”; with “QEQLQESGGGLVQAGGSLRLSCAASGYISSWYPMGWYRQAPGKEREFVATIAPGATTYYADSVKGRFTISRDYAKNTVYLQMNSLTPEDTAVYYCAAGPENNDFYSYWGQGTQVTVSS”, “low polyreactivity”.
Next, “QEQLQESGGGLVQAGGSQSLSCAASGIIFDWFFMGWYRQAPGREREFVAAITYGATTNYADSVKGRFTISRDNGKITVYLQMNSLKPEDCAVYYCAAASPLYWVDDFESGWRYYYWGQGTQVTVSS”: “low polyreactivity”; “QEQLQESGSGLVQAGGSLRLSCAASGNIFQDWVMAWYRQAPGKERELVAAISPGAITYYADSVKGRFTISRDNAKNTVYLQTNSLKPEDTAVYYCAAYYIVEYLHGYWGQGTRVTVSS”: “low polyreactivity”; “QEQLQESGSGLVQAGGSLRLSCAASGNIFQDWVMGWYRKAPGQERELVAAISPGAITYYADSVKGRFTISRDNAKNSVYLQTKSLKPEDTAVYYCGAYYIVEYLHGYWGQGTRVTVSS”: “low polyreactivity”.
